{
  "source": "patent US20250271431A1",
  "about": "(NEW ERA MABS, published 2025)",
  "molecular_target": "SARS-CoV-2 Spike protein (D614G, furin-cleavage site destroyed, FKO) on SARS-CoV-2 virus-like particles (VLPs) (SARS-CoV-2, UniProt P0DTC2 14-1273)",
  "data": [
    {"binder": "hcAb A7.2 (clone A7_2), camelid full length IgG2 heavy chain only antibody (antibody, V domains shown) VH: DVQLQESGGGLVQPGKSLKLSCAAFGFAFSSTWMHWVRQAPGKGPEWVAFINPGGEKTMHADSVKGRFTISRDDAKNTLYLQMNNLKPEDTAVYYCAIERKDAFSWGQGTQVTVSS", "values": [
      {"measurement": "EC50 (read off the curve)", "value": "~400", "unit": "µg/mL"}
    ]}
  ]
}
